Data: publication PMC2063677

Assays:
IMP full length = molecular target: T1, IMP full length (Drosophila melanogaster, UniProt Q8IR99 1-573); test: filter binding
T1 sequence: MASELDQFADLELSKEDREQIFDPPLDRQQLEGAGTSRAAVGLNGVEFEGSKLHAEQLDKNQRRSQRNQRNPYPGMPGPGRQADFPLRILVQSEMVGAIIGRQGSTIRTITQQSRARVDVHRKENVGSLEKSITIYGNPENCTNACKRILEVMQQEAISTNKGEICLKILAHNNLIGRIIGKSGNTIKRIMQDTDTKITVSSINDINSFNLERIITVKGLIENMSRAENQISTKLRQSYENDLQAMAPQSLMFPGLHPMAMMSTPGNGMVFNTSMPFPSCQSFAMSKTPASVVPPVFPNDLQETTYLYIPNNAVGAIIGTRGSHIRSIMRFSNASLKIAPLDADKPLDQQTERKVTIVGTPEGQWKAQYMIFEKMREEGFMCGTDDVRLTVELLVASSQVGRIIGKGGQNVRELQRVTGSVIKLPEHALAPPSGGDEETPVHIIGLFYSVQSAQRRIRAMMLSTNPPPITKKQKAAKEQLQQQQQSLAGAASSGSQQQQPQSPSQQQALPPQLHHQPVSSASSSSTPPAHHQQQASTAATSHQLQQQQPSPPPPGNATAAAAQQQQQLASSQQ

IMP KH3 = molecular target: T2, IMP KH3 (Drosophila melanogaster, UniProt Q8IR99 301-396); test: filter binding
T2 sequence: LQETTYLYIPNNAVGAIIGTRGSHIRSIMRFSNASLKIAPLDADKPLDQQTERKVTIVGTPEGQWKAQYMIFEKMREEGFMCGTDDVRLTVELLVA

B1: 3x 4-12-13 WT (UUUAU) (ssRNA)
RNA: GUUUUUAUUAUUUUUAUUUUUUCAACUUUUUAUUAUUUUUAUUUUUUCAACUUUUUAUUAUUUUUAUUUUUUCAAC
B1: binds (IMP full length); binds (IMP KH3).
